Tests used:
Experiment in all cases: NMR titration
[1] = target: cyclophilin A (UniProt P62937 1-165)
[2] = target: CypA^V6TV29L (UniProt P62937 1-165, V6T | V29L)
[3] = target: CypA^V29A (UniProt P62937 1-165, V29A)
[4] = target: CypA^V29T (UniProt P62937 1-165, V29T)
[5] = target: CypA^V29L (UniProt P62937 1-165, V29L)
[6] = target: CypA^V6A (UniProt P62937 1-165, V6A)
[7] = target: CypA^V6I (UniProt P62937 1-165, V6I)
[8] = target: CypA^V6S (UniProt P62937 1-165, V6S)
[9] = target: CypA^V6T (UniProt P62937 1-165, V6T)
CypA^V6T, sequence (P62937 whole entry V6T): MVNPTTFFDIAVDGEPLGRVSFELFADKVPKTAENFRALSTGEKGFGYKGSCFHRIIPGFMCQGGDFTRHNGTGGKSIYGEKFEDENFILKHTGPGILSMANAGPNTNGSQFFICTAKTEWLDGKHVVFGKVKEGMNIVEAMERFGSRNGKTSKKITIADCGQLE

[10] = target: CypA^V6L (UniProt P62937 1-165, V6L)
CypA^V6L, sequence (P62937 whole entry V6L): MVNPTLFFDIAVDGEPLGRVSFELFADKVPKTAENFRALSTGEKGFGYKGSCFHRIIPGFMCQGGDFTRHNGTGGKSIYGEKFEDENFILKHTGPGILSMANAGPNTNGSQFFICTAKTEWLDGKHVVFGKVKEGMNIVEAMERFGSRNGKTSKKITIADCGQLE

CypA^V29L, sequence (P62937 whole entry V29L): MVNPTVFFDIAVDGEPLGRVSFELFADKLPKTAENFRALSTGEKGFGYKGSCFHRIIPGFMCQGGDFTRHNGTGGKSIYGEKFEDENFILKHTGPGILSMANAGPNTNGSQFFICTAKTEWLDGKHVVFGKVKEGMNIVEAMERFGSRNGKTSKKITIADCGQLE
CypA^V6A, sequence (P62937 whole entry V6A): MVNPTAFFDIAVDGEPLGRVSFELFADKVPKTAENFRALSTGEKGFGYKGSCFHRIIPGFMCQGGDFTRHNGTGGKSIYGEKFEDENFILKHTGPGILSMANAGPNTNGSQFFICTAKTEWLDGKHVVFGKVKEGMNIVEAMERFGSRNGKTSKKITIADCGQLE
CypA^V29A, sequence (P62937 whole entry V29A): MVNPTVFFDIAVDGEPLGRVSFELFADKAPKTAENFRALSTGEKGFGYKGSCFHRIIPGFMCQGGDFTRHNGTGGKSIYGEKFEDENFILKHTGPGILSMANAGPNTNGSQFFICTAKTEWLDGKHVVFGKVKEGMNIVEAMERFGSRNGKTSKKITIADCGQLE
cyclophilin A, sequence (P62937 whole entry): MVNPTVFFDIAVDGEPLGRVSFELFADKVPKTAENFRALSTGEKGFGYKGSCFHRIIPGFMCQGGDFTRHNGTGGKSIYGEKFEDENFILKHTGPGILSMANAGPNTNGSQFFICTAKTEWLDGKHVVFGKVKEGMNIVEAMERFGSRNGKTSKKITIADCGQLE
CypA^V6TV29L, sequence (P62937 whole entry V6T/V29L): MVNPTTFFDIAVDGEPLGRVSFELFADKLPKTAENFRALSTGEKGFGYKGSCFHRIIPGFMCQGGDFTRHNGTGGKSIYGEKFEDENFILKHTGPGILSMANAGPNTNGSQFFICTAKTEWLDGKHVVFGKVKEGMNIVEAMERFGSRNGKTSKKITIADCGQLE
CypA^V6I, sequence (P62937 whole entry V6I): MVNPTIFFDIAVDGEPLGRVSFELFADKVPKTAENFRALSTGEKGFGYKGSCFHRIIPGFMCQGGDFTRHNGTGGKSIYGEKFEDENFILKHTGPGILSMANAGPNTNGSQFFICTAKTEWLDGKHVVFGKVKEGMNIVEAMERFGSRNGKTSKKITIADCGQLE
CypA^V29T, sequence (P62937 whole entry V29T): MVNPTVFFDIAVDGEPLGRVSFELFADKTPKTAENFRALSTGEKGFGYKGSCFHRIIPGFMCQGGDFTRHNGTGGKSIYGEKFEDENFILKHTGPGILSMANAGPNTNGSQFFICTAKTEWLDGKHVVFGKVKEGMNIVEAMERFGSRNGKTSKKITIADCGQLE
CypA^V6S, sequence (P62937 whole entry V6S): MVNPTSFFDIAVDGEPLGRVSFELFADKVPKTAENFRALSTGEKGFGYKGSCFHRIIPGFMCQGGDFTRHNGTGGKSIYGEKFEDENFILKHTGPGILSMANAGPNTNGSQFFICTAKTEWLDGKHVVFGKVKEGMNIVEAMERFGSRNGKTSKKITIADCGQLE

Kd [1]: 76 µM
Kd [2]: 37 µM
Kd [3]: 57 µM
Kd [4]: 73 µM
Kd [5]: 38 µM
Kd [6]: 82 µM
Kd [7]: 86 µM
Kd [8]: 65 µM
Kd [9]: 48 µM
Kd [10]: 69 µM
B1: FGP peptide (peptide)
peptide: GSFGPDLRAGD
